Substrate: CC(=O)N[C@H]1[C@H](Oc2ccc3c(C)cc(=O)oc3c2)O[C@H](CO)[C@@H](O[C@@H]2O[C@H](CO)[C@@H](O[C@@H]3O[C@H](CO)[C@@H](O)[C@H](O)[C@H]3NC(C)=O)[C@H](O)[C@H]2NC(C)=O)[C@@H]1O
Experiment: fluorometric 4-methylumbelliferone release, nonlinear regression
Assay type: biochemical, Trichoderma asperellum
Conditions: 50 mM sodium acetate, pH 4.5, 40 °C, 5-70 µM substrate
Text: fluorometric 4-methylumbelliferone release, nonlinear regression on Chit36-TA

B1: Chit36-TA (Trichoderma asperellum CBS 433.97) (protein)
chain: QNATCALKGKPAGKVLMGYWENWDGAANGVHPGFGWTPIENPIIKQNGYNVINAAFPVILSDGTALWENDMAPDTQVATPAEMCEAKAAGATILLSIGGATAGIDLSSSAVADKFIATIVPILKQYNFDGIDIDIETGLTNSGNINTLSTSQTNLIRIIDGVLAQMPSNFGLTMAPETAYVTGGSITYGSIWGAYLPIIQKYVQNGRLWWLNMQYYNGDMYGCSGDSYAAGTVQGFIAQTDCLNAGLTIQGTTIKVPYDMQVPGLPAQSGAGGGYMNPSLVGQAWDHYNGALKGLMTWSINWDGAGNWTFGDNLLTRIG
notes: mature protein without native signal peptide, C-terminal His6 (kept), codon-optimized synthetic gene, secreted from Komagataella phaffii BG10, Ni-NTA purified, N-glycosylated (43 kDa)
B1 gave a Km of 289 µM and a Vmax of 3 µmol/min/mg.

From PMC11399303, “Recombinant expression and characterization of the endochitinase Chit36-TA from Trichoderma asperellum in Komagataella phaffii for chitin degradation of black soldier fly exuviae” (Bioprocess and Biosystems Engineering, 2024)
